Among the data in publication PMC13397619 are enrichment values, retold here.

B1: NLV3 TCR beta chain (CDR3β only) (parent)
chain: ASSPTGGSPSPLH
partner: MLVPMVATV
B2: NLV2 TCR alpha chain (CDR3α only) (parent)
chain: AGPMKTSYDKVI

The first assay covers variants of B1. In words: T-Switch: Jurkat TCRβ−/− cells expressing a CDR3 saturation-mutagenesis library, stained with two peptide-HLA-A*02:01 tetramers (original and novel peptide) plus anti-CD3, FACS-sorted into four gates, gDNA sequenced. As to conditions: with HLA-A*02:01 with peptide … (NLV 3-1, the original bait), tetramers 1 µg/mL, 30 min on ice, DP and SW gates expanded about 10 days between rounds ('two to three rounds of selection' in the Methods), gate SP: higher = more of the variant in the gate that binds the original peptide and not the novel one = retained original binding. Fold enrichment of the CDR3 variant in one FACS gate of a two-tetra, unresolved parent, parent is a CDR3 fragment, scale: fold enrichment, numbering: sequential-on-construct, sequence ….
Regarding […] (CDR3 as printed); S8P derived by comparing it with the table's wild-type CDR3 ASSPTGGSPSPLH, the enrichment was 0. As to […] (CDR3 as printed); S3Q derived by comparing it with the table's wild-type CDR3 ASSPTGGSPSPLH, the enrichment amounted to 0. For […] (CDR3 as printed); S3F derived by comparing it with the table's wild-type CDR3 ASSPTGGSPSPLH, the enrichment stood at 0.

As for […] (CDR3 as printed); S8A derived by comparing it with the table's wild-type CDR3 ASSPTGGSPSPLH, the enrichment worked out at 11.2.

For […] (CDR3 as printed); S8D derived by comparing it with the table's wild-type CDR3 ASSPTGGSPSPLH, the enrichment was found to be 0. With […] (CDR3 as printed); S2E derived by comparing it with the table's wild-type CDR3 ASSPTGGSPSPLH, the enrichment amounted to 0.

In the case of […] (CDR3 as printed); S3G derived by comparing it with the table's wild-type CDR3 ASSPTGGSPSPLH, the enrichment amounted to 9.71.

Regarding […] (CDR3 as printed); P9V derived by comparing it with the table's wild-type CDR3 ASSPTGGSPSPLH, the enrichment is 3.5. On to […] (CDR3 as printed); S2T derived by comparing it with the table's wild-type CDR3 ASSPTGGSPSPLH, for which the enrichment amounted to 4.08.

Regarding […] (CDR3 as printed); T5R derived by comparing it with the table's wild-type CDR3 ASSPTGGSPSPLH, the enrichment amounted to 0. In the case of […] (CDR3 as printed); S2M derived by comparing it with the table's wild-type CDR3 ASSPTGGSPSPLH, the enrichment was 0. As to […] (CDR3 as printed); S3P derived by comparing it with the table's wild-type CDR3 ASSPTGGSPSPLH, the enrichment worked out at 0.

As to […] (CDR3 as printed); T5E derived by comparing it with the table's wild-type CDR3 ASSPTGGSPSPLH, the enrichment came out at 0. With […] (CDR3 as printed); T5Y derived by comparing it with the table's wild-type CDR3 ASSPTGGSPSPLH, the enrichment is 15.6.

For […] (CDR3 as printed); P11R derived by comparing it with the table's wild-type CDR3 ASSPTGGSPSPLH, the enrichment stood at 9.69. Consider […] (CDR3 as printed); S3C derived by comparing it with the table's wild-type CDR3 ASSPTGGSPSPLH, for which the enrichment was found to be 11.2. With […] (CDR3 as printed); S8W derived by comparing it with the table's wild-type CDR3 ASSPTGGSPSPLH, the enrichment was determined as 0.

Regarding […] (CDR3 as printed); P11I derived by comparing it with the table's wild-type CDR3 ASSPTGGSPSPLH, the enrichment amounted to 1.23.

In the case of […] (CDR3 as printed); S8Y derived by comparing it with the table's wild-type CDR3 ASSPTGGSPSPLH, the enrichment was 8.08.

Turning to […] (CDR3 as printed); S10C derived by comparing it with the table's wild-type CDR3 ASSPTGGSPSPLH, the enrichment came out at 0.

For […] (CDR3 as printed); P4R derived by comparing it with the table's wild-type CDR3 ASSPTGGSPSPLH, the enrichment came out at 0.316.

Take […] (CDR3 as printed); P11W derived by comparing it with the table's wild-type CDR3 ASSPTGGSPSPLH: the enrichment was 0. […] (CDR3 as printed); P11G derived by comparing it with the table's wild-type CDR3 ASSPTGGSPSPLH: the enrichment was found to be 0. Still for that read-out and setting: the same measure for […] (CDR3 as printed); S10V derived by comparing it with the table's wild-type CDR3 ASSPTGGSPSPLH: 0. Still for that read-out and setting: the same measure for […] (CDR3 as printed); S8K derived by comparing it with the table's wild-type CDR3 ASSPTGGSPSPLH: 0; for […] (CDR3 as printed); P11Q derived by comparing it with the table's wild-type CDR3 ASSPTGGSPSPLH: 5.97; for […] (CDR3 as printed); P9R derived by comparing it with the table's wild-type CDR3 ASSPTGGSPSPLH: 0.

With […] (CDR3 as printed); P11T derived by comparing it with the table's wild-type CDR3 ASSPTGGSPSPLH, the enrichment is 0. Same read-out and setting: the same measure for […] (CDR3 as printed); T5V derived by comparing it with the table's wild-type CDR3 ASSPTGGSPSPLH: 19.2.

In the case of […] (CDR3 as printed); P9G derived by comparing it with the table's wild-type CDR3 ASSPTGGSPSPLH, the enrichment was 0. For the variant […] (CDR3 as printed); P9H derived by comparing it with the table's wild-type CDR3 ASSPTGGSPSPLH, the enrichment worked out at 0.

Variants of B2 are the subject of a further assay. Described as above. As to conditions: with both tetramers (double-negative gate, binds neither): HLA-A*02:01 with … and with …, tetramers 1 µg/mL, 30 min on ice, SP, DP and SW gates expanded about 10 days between rounds ('two to three rounds of selection' in the Methods), gate DN: OPPOSITE: higher = more of the variant in the gate that binds neither peptide = LESS binding (or no expression; inferred). Fold enrichment of the CDR3 variant in one FACS gate of a two-tetram, unresolved parent, parent is a CDR3 fragment, scale: fold enrichment, numbering: sequential-on-construct, sequence starts at 1.
On to […] (CDR3 as printed); G2Y derived by comparing it with the table's wild-type CDR3 AGPMKTSYDKVI, for which the enrichment turned out to be 0.902. For […] (CDR3 as printed); G2T derived by comparing it with the table's wild-type CDR3 AGPMKTSYDKVI, the enrichment came out at 0.533. On the same count and under the same terms, the same measure for […] (CDR3 as printed); G2E derived by comparing it with the table's wild-type CDR3 AGPMKTSYDKVI: 0.844; for […] (CDR3 as printed); V11A derived by comparing it with the table's wild-type CDR3 AGPMKTSYDKVI: 1.13; for […] (CDR3 as printed); Y8C derived by comparing it with the table's wild-type CDR3 AGPMKTSYDKVI: 1.27. Take […] (CDR3 as printed); M4V derived by comparing it with the table's wild-type CDR3 AGPMKTSYDKVI: the enrichment was 0.322.

Still in this assay, the particulars now being: with both tetramers (double-positive gate): HLA-A*02:01 with … and with …, tetramers 1 µg/mL, 30 min on ice, SP, DP and SW gates expanded about 10 days between rounds ('two to three rounds of selection' in the Methods), gate DP: higher = more of the variant in the gate that binds both peptides. Fold enrichment of the CDR3 variant in one FACS gate of a two-tetramer stain. SP/DP/SW gates were expanded and re-sorted bef, unresolved parent, parent is a CDR3 fragment, scale: fold enrichment, numbering: sequential-on-construct, sequence starts at 1.
Turning to […] (CDR3 as printed); G2Y derived by comparing it with the table's wild-type CDR3 AGPMKTSYDKVI, the enrichment worked out at 0. In the case of […] (CDR3 as printed); G2T derived by comparing it with the table's wild-type CDR3 AGPMKTSYDKVI, the enrichment was 0.

With […] (CDR3 as printed); G2E derived by comparing it with the table's wild-type CDR3 AGPMKTSYDKVI, the enrichment stood at 0. As for […] (CDR3 as printed); V11A derived by comparing it with the table's wild-type CDR3 AGPMKTSYDKVI, the enrichment is 0.

In the case of […] (CDR3 as printed); Y8C derived by comparing it with the table's wild-type CDR3 AGPMKTSYDKVI, the enrichment is 0. Regarding […] (CDR3 as printed); M4V derived by comparing it with the table's wild-type CDR3 AGPMKTSYDKVI, the enrichment stood at 0.
